The source of these data is article PMC5308896, “A conformational switch regulates the ubiquitin ligase HUWE1” (eLife, 2017).

The stoichiometry N is a count of units in the complex or per binding partner. One may read the Kd as the concentration at which binding is half-saturated.

The target of data set [1] is HUWE1 (3951–4374), crystallization construct with the N-terminal expression tag (human) (UniProt Q7Z6Z7). Nature of the data set: SEC-MALS; proteins injected at high concentration (~350 to 400 μM; highest point of Figure 3A, Figures 4A, 4F, 4G, Table 2); Superdex 200 10/300 GL, room temperature, 20 mM HEPES pH 8.0, 250 mM NaCl, 1 mM EDTA, 5 mM DTT. In general terms: In gel filtration, larger molecules generally elute earlier.

The target in data set [2] is HUWE1 (3951–4374), untagged (human) (UniProt Q7Z6Z7). Nature of the data set: AUC; sedimentation equilibrium, dimer to monomers (monomer-dimer self-association model, Sedphat); 10 µM protein, 4°C, 10 mM HEPES pH 8.0, 200 mM NaCl, 1 mM EDTA, 1 mM β-mercaptoethanol; 9000, 13,000 and 17,000 rpm.
The target of data set [3] is T1, HUWE1 (3843–4374) (human, UniProt Q7Z6Z7 3843-4374).
T1 construct: source: LOBSTR RIL cells, purified (IMAC, gel filtration)
T1 sequence (looked up): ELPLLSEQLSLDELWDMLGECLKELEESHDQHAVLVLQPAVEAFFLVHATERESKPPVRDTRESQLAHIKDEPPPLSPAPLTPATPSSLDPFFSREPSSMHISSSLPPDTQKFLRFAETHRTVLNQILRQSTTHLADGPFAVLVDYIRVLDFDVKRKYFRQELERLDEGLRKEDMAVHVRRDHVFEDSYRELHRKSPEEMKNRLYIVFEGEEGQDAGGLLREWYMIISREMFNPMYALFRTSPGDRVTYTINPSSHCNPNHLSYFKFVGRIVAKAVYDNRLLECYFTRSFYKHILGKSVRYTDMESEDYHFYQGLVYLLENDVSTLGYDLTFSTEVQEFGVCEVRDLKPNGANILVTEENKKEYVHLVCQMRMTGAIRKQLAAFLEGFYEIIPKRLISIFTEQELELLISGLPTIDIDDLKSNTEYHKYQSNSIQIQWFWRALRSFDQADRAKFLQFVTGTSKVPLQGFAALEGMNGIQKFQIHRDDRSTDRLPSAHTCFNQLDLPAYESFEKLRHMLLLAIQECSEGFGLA
Briefly: SEC; HUWE1 constructs at 120 μM without and with a four-fold molar excess of p14ARF (45-75); 10% DMSO; Superdex 200 Increase 3.2/300, 4°C; co-elution of the peptide shown by SDS-PAGE. The following applies: both partners purified.

Data set [4] concerns the molecule itself. Briefly: SEC-MALS; proteins injected at high concentration (~350 to 400 μM; highest point of Figure 3A, Figures 4A, 4F, 4G, Table 2); Superdex 200 10/300 GL, room temperature, 20 mM HEPES pH 8.0, 250 mM NaCl, 1 mM EDTA, 5 mM DTT.
The target in data set [5] is T1, HUWE1 (3843–4374). Briefly: SEC; as the SEC with p14ARF (45-75), but with p14ARF (45-64); result told only in one sentence of the methods, no data shown. The note with it: both partners purified.
The target of data set [6] is T2, HUWE1 (3951–4374), untagged (human, UniProt Q7Z6Z7 3951-4374).
T2 construct: Monomer MW 49.752 kDa (AUC methods); source: LOBSTR RIL cells, purified (IMAC, TEV protease cleavage, second IMAC, gel filtration); not shown: His6, N-terminal, cleaved
T2 sequence (looked up): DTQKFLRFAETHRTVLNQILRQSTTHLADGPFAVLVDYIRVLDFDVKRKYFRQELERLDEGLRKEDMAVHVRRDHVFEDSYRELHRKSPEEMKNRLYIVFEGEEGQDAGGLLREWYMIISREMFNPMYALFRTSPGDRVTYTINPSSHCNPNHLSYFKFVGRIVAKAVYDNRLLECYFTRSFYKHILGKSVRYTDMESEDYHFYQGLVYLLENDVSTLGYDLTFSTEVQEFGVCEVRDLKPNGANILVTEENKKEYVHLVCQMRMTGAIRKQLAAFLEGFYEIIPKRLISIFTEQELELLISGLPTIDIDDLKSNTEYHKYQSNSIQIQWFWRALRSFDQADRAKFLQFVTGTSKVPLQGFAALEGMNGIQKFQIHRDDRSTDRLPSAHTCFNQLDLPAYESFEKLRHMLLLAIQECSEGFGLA
Nature of the data set: SEC; MBP-tagged activation segment (or MBP) and HUWE1 constructs, each alone at 120 μM and as a 1.5:1 molar mixture; Superdex 200 Increase 3.2/300, 4°C, 20 mM HEPES pH 8.0, 100 mM NaCl, 1 mM EDTA, 5 mM DTT. The following applies: both partners purified.

On to “HUWE1 (3951–4374), crystallization construct with the N-terminal expression tag (from UniProt Q7Z6Z7 3951-4374) (domain or fragment)”, for which the stoichiometry N in data set [1] came to 2. Turning to “HUWE1 (3951–4374), untagged (from UniProt Q7Z6Z7 3951-4374) (domain or fragment)”, the Kd in data set [2] came out at 2900 nM.

B1: p14ARF-derived peptide (residues 45–75) (peptide, UniProt Q8N726 45-75, looked up)
peptide: LVLMLLRSQRLGQQPLPRRPGHDDGQRPSGG
notes: p14ARF, human, residues 45–75; also called p14ARF (45-75); p14ARF-peptide; source: synthetic peptide, bought: Elim Biopharm
As for B1, in the data set with HUWE1 (3843–4374) [3], the binding result is reported as “binds”.

B2: HUWE1 (3896–4374) (domain or fragment, human, UniProt Q7Z6Z7 3896-4374, looked up)
chain: SKPPVRDTRESQLAHIKDEPPPLSPAPLTPATPSSLDPFFSREPSSMHISSSLPPDTQKFLRFAETHRTVLNQILRQSTTHLADGPFAVLVDYIRVLDFDVKRKYFRQELERLDEGLRKEDMAVHVRRDHVFEDSYRELHRKSPEEMKNRLYIVFEGEEGQDAGGLLREWYMIISREMFNPMYALFRTSPGDRVTYTINPSSHCNPNHLSYFKFVGRIVAKAVYDNRLLECYFTRSFYKHILGKSVRYTDMESEDYHFYQGLVYLLENDVSTLGYDLTFSTEVQEFGVCEVRDLKPNGANILVTEENKKEYVHLVCQMRMTGAIRKQLAAFLEGFYEIIPKRLISIFTEQELELLISGLPTIDIDDLKSNTEYHKYQSNSIQIQWFWRALRSFDQADRAKFLQFVTGTSKVPLQGFAALEGMNGIQKFQIHRDDRSTDRLPSAHTCFNQLDLPAYESFEKLRHMLLLAIQECSEGFGLA
notes: source: LOBSTR RIL cells, purified (IMAC, gel filtration)
Regarding B2, in data set [4], the “stoichiometry N” value stood at 2.

B3: p14ARF-derived peptide (residues 45–64), unlabelled (peptide, UniProt Q8N726 45-64, looked up)
peptide: LVLMLLRSQRLGQQPLPRRP
notes: p14ARF, human, residues 45–64; also called p14ARF (45-64); source: synthetic peptide, bought: Elim Biopharm
For B3, the binding result in the data set with HUWE1 (3843–4374) [5] is reported as “binds”.

B4: MBP-tagged activation segment of HUWE1 (residues 3843–3902) (domain or fragment, human, UniProt Q7Z6Z7 3843-3902, looked up)
chain: ELPLLSEQLSLDELWDMLGECLKELEESHDQHAVLVLQPAVEAFFLVHATERESKPPVRD
notes: pETM41: N-terminal TEV protease-cleavable MBP-tag, C-terminal 3C protease-cleavable His6-tag; source: E. coli BL21(DE3), purified (IMAC, gel filtration); not shown: MBP, N-terminal, kept; His6, C-terminal, kept
B4: in data set [6], the binding result was “binds”.
